Read-outs that look alike come from different tables or passages of the source.
How the values were obtained:
[1] = target: hnRNP-E1 (PCBP1) wild-type (Homo sapiens) (UniProt Q15365); conditions: Scatchard
[2] = target: hnRNP-E1(C293S) (Homo sapiens) (UniProt Q15365); conditions: no L-homocysteine; Scatchard
[3] = target: hnRNP-E1(G292A) G292A (Homo sapiens) (UniProt Q15365); conditions: no L-homocysteine; Scatchard
Sequence of hnRNP-E1(G292A) G292A (Homo sapiens) (Q15365 whole entry A205V/G292A): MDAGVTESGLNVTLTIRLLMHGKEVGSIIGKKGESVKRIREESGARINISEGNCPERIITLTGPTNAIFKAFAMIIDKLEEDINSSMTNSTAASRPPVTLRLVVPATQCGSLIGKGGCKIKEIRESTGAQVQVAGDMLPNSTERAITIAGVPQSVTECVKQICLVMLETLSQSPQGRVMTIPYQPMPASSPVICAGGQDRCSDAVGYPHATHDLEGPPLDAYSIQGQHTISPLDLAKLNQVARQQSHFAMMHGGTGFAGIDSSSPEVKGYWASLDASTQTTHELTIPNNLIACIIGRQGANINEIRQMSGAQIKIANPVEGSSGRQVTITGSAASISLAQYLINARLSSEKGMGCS

Sequence of hnRNP-E1 (PCBP1) wild-type (Homo sapiens) (Q15365 whole entry A205V): as the sequence (Q15365 whole entry A205V/G292A) above, with A292G counted along it
Sequence of hnRNP-E1(C293S) (Homo sapiens) (Q15365 whole entry A205V/C293S): as the sequence (Q15365 whole entry A205V/G292A) above, with A292G, C293S counted along it

For “18-nt folate receptor-alpha mRNA cis-element”, the Kd ([1]; 10 uM L-homocysteine) was 0.89 nM, the Kd ([1]; 50 uM L-homocysteine) was 0.47 nM and the Kd ([1]; no L-homocysteine) was 1.47 nM. It also gave a Kd [2] of 0.27 nM and a Kd [3] of 1.57 nM.

From patent US10093706
